Legend:
[1] = test system: XPC4 target locus in 293H cells; experiment: Meganuclease-induced mutagenesis at XPC4 target locus by deep sequencing, siRNA targeting DNMT1; assay type: cell-based, human; conditions: for mutagenesis, PCR fragments carrying a mutation: XPC4 meganuclease plasmid
Method: The human 293H cells (ATCC) were plated at a density of 1.2×10^6 cells per 10 cm dish in complete medium (DMEM supplemented with 2 mM L-glutamine, penicillin (100 IU/ml), streptomycin (100 μg/ml), amphotericin B (Fongizone: 0.25 μg/ml, Invitrogen-Life Science) and 10% FBS). The next day, cells were transfected with 5 μg of empty vector pCLS003 (SEQ ID NO: 65) and 1 nM or 5 nM of si_DNMT1 composed of mixture of two siRNA DNMT1—1 ([…], SEQ ID NO: 66) and DNMT1—2 ([…], SEQ ID NO: 67) or with si_AS, a siRNA control with no known human target, using Lipofectamine 2000 as transfection reagent (Invitrogen) according to the manufacturer's protocol. The day after, cells were re-platted at the density of 1.2×10^6 cells per 10 cm. 24 hours after, cells were transfected again with 1 nM or 5 nM of siDNMT1 or si_AS in presence of 3 μg of meganuclease expressing vector (pCLS2510; SEQ ID NO: 68) and 2 μg of empty vector or 5 μg of empty vector (SEQ ID NO: 65), with Lipofectamine 2000 transfection reagent (Invitrogen) according to the manufacturer's protocol.
After genomic DNA extraction, the XPC4 target locus was amplified with specific primers flanked by specific adaptator needed for HTS sequencing on the 454 sequencing system (454 Life Sciences)
5,000 to 10,000 sequences per sample were analyzed.

C1234 DNA target = experiment: In vitro binding assay, fluorescence anisotropy of fluorescein-labeled C1234 duplex
Method: FIG. 4: Spectrofluorimetric titration of fluorescein-labeled C1234 by I-Cre I wild type. 25 nM of C1234 duplex was incubated with increasing concentrations of I-Cre I [from 0 to 400 nM, only 0-80 nM shown] in binding buffer (10 mM Tris-HCl, 400 mM NaCl, 10 mM CaCl2, 10 mM DTT, pH8) at 25° C. After 30 minutes incubation, the fluorescence anisotropy of the mixture was recorded with a Pherastar Plus (BMG Labtech) operating in fluorescence polarization end point mode with excitation and emission wavelengths set to 495 and 520 nm respectively. Normalized fluorescence anisotropy is plotted as a function of active I-Cre I concentration. Apparent dissociation constant were determined by fitting raw data by an hyperbolic function (Ax=(A∞*[Meganuclease])/(Kd+[Meganuclease]) with Ax, the fluorescence anisotropy value obtained at a given meganuclease concentration, A∞, the fluorescence anisotropy value obtained at saturating concentration of meganuclease and Kd the dissociation constant of the equilibrium studied).
Fluorescein labeled C1234 oligonucleotides were synthesized and HPLC-purified by Eurogentec. To prepare C 1234 duplex corresponding to I-Cre I double strand DNA wild type target, C1234 forward (SEQ ID NO: 31, “a” strand below) labeled with Fluorescein on its 5′ end was mixed with 1 equivalent of C1234_reverse (SEQ ID NO: 32, “b” strand below) in 100 mM Tris-HCl, 50 mM EDTA, 150 mM NaCl, pH8. The mixture was heated to 95° C. for 2 min and then cooled down to 25° C. over 1 hour. C1234 duplex was eventually purified by anion exchange chromatography using a miniQ PE column (GE healthcare) pre-equilibrated with buffer A (20 mM Tris-HCl, pH7.4). Single stranded oligonucleotides and other contaminants were first discarded using a 0 to 360 mM NaCl step gradient and elution of pure C1234 duplex was performed with a 360-1000 mM NaCl linear gradient (5 column volumes). C 1234 duplex and fluorescein final concentrations were assessed by spectrophotometry using their respective extinction coefficients ε260nm=62900 M^−1 cm^−1 and ε495nm=83000 M^−1 cm^−1. As expected, a ratio [C1234 duplex]/[fluorescein]˜1 was obtained. The same procedure was used to prepare the different methylated forms of C 1234 duplex (C 1234_Me full composed of SEQ ID NO: 35+SEQ ID NO: 38, C1234_Me-6a/-5b composed of SEQ ID NO: 33+SEQ ID NO: 36, C1234_Me-3a/-2b composed of SEQ ID NO: 34+SEQ ID NO: 37, C1234_Me-3a composed of SEQ ID NO: 34+SEQ ID NO: 32, C1234_Me-2b composed of SEQ ID NO: 31+SEQ ID NO: 37, respectively where “a” and “b” designate each of the DNA strands; for example C1234 Me-6a/-5b is a duplex with methylations at position −6 on strand “a” and at position −5 on strand “b”, respectively) and the random target corresponding to a stretch of 12 GA repeats, (forward, SEQ ID NO: 39 and reverse, SEQ ID NO: 40). To investigate the binding of I-Cre I to C1234 duplex, 25 nM of C1234 duplex was incubated with increasing concentrations of I-Cre I (from 0 to 400 nM) in binding buffer (10 mM Tris-HCl, 400 mM NaCl, 10 mM CaCl2, 10 mM DTT, pH8) at 25° C. After 30 minutes incubation, the fluorescence anisotropy of the mixture was recorded with a Pherastar Plus (BMG Labtech) operating in fluorescence polarization end point mode with excitation and emission wavelengths set to 495 and 520 nm respectively. Apparent dissociation constants were determined by fitting raw data by an hyperbolic function (Ax=(A∞*[Meganuclease])/(Kd+[Meganuclease]) with Ax, the fluorescence anisotropy value obtained at a given meganuclease concentration, A∞, the fluorescence anisotropy value obtained at saturating concentration of meganuclease and Kd the dissociation constant of the equilibrium studied).

Row | Molecule | mutagenesis, PCR fragments carrying a mutation ([1]; Si_AS 1 nM (control siRNA)) | mutagenesis, PCR fragments carrying a mutation ([1]; Si_AS 5 nM (control siRNA)) | mutagenesis, PCR fragments carrying a mutation ([1]; Si_DNMT1 1 nM) | mutagenesis, PCR fragments carrying a mutation ([1]; Si_DNMT1 5 nM) | PCR fragments carrying a mutation ([1]; XPC4 meganuclease, non relevant siRNA (si_AS)) | mutations ([1]; XPC4 meganuclease, samples treated with si_DNMT1) | affinity compared with unmethylated C1234 (C1234 DNA target; C1234 Me-5b/-2b) | Kd (C1234 DNA target; C1234_Me full (fully methylated)) | affinity for fully methylated C1234 lower than for unmethylated C1234 (C1234 DNA target; C1234_Me full vs unmethylated) | Kd (C1234 DNA target; C1234_Me-2b) | Kd (C1234 DNA target; C1234_Me-5b) | Kd (C1234 DNA target; C1234_Me-5b/-2b) | Kd (C1234 DNA target; C1234_Me-6a/-3a) | factor by which methylation affected affinity with respect to unmethylated C1234 (C1234 DNA target; C1234 methylated in position −2b) | factor by which methylation affected affinity with respect to unmethylated C1234 (C1234 DNA target; C1234 methylated in position −5b) | Kd (C1234 DNA target; unmethylated C1234)
1 | XPC4: engineered meganuclease (SEQ ID NO: 2) designed to cleave xeroderma pigmentosum group C gene (XPC) (protein) MANTKYNEEFLLYLAGFVDGDGSIIAQIKPNQSHKFKHALQLTFKVTQKTQRRWFLDKLVDEIGVGYVQDSGSVSNYILSEIKPLHNFLTQLQPFLELKQKQANLALKIIEQLPSAKESPDKFLEVCTWVDQVAALNDSKTRKTTSETVRAVLDSLSEKKKSSPAAGGSDKYNQALSKYNQALSKYNQALSGGGGSNKKFLLYLAGFVDSDGSIIAQIKPNQSHKFKHQLSLAFQVTQKTQRRWFLDKLVDRIGVGYVRDRGSVSDYILSKIKPLHNFLTQLQPFLKLKQKQANLVLKIIEQLPSAKESPDKFLEVCTWVDQVAALNDSKTRKTTSETVRAVLDSLSEKKKSSP | 0.3% | 0.2% | 4.8% | 7.6% | 0.2-0.3% | up to 7% | – | – | – | – | – | – | – | – | – | –
2 | I-CreI: wild-type I-CreI meganuclease (… homing endonuclease), SEQ ID NO: 1, recombinant Cterm His-tag (protein, listed as Chlamydomonas reinhardtii, C-terminal His-tag) MNTKYNKEFLLYLAGFVDGDGSIIAQIKPNQSYKFKHQLSLTFQVTQKTQRRWFLDKLVDEIGVGYVRDRGSVSDYILSEIKPLHNFLTQLQPFLKLKQKQANLVLKIIEQLPSAKESPDKFLEVCTWVDQIAALNDSKTRKTTSETVRAVLDSLSEKKKSSP | – | – | – | – | – | – | much lower affinity | > 1000 nM | at least 400 times | 40.8 nM | 24 nM | > 1000 nM | ≤ 2.5 nM | ≤ 10 | ≤ 10 | ≤ 2.5 nM

Source: patent US20130196320A1, “METHOD FOR IMPROVING CLEAVAGE OF DNA BY ENDONUCLEASE SENSITIVE TO METHYLATION” (CELLECTIS, priority 2010, published 2013)
